Values quoted from earlier work as cited in paper PMC6704176.
pKd: −log10 of the molar value.

Target: SRSRY (uPAR-derived peptide) (Homo sapiens)

pKd: 7.52
Substance: FPR1 (from UniProt P21462)
